From patent US20080241130A1

Target: mouse IL-17F/IL-17A heterodimer (mouse)
Assay: cell-based or functional assay

mouse IL-17F/IL-17A heterodimer (mouse), sequence (Q62386 26-158, chain 1 of 2): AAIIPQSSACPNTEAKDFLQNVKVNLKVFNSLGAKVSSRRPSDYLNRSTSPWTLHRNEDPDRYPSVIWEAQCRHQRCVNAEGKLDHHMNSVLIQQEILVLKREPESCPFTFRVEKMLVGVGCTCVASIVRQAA
mouse IL-17F/IL-17A heterodimer (mouse), sequence (Q7TNI7 29-161, chain 2 of 2, further chain): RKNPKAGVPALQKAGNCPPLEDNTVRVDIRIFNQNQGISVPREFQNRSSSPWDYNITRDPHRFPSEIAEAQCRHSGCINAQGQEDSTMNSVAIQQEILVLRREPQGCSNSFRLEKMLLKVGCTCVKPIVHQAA

- decrease in CXCL1 production by MLE-12 cells induced by 200 ng/ml mIL-17F/IL-17A with 80 µg/ml antibody: 85%
Substance: anti-mouse IL-17A antibody 50104 (R&D Systems)
